Results on 1 molecule are retold here after patent publication US20110126299A1 (published 2011).

This experiment addresses T1, λ2^315 Ig L-chain (idiotype, Id) peptide on I-E^d (mouse).
T1 peptide: ALWFRNHFVFG
Put plainly: activation reporter or marker.

B1: 4B2A1 TCR (TCR, V domains shown)
Valpha: QQKVQQSPESLIVPEGAMTSLNCTFSDSASQYFAWYRQQSGKAPKALMSIFSNGEKEEGRFTIHLNKASLHFSLHIRDSQPSDSALYLCAVRGPNTGNYKYVFGAGTRLKVIA
Vbeta: EAAVTQSPRNKVAVTGGKVTLSCNQTNNHNNMYWYRQDTGHGLRLIHYSYGAGSTEKGDIPDGYKASRPSQENFSLILELATPSQTSVYFCASGDAGQGHSDYTFGSGTRLLVI
As for B1, the binding result is given as “recognises”.
